The text below walks through data of patent publication US6872537.

The target in the series is microtubules prepared from bovine brain tubulin.

B1: co-expressed baculovirus p60/p80 katanin heterodimer (both subunits with N-terminal His(6) tag) (protein)
chain 1: HHHHHHMSVDEICENTKMGREYALLGNYETSLVYYQGVLQQIQKLLTSVHEPQRKHQWQTIRQELSQEYEHVKNITKTLNGFKSEPAAPEPAPNHGRAAPFSHHQHAAKPAAAEPARDPDVWPPPTPVDHRPSPPYQRAARKDPPRRSEPSKPANRAPGNDRGGRGPSDRRGDARSGGGGRGGARGSDKDKNRGGKSDKDKKAPSGEEGDEKKFDPAGYDKDLVENLERDIVQRNPNVHWADIAGLTEAKRLLEEAVVLPLWMPDYFKGIRRPWKGVLMVGPPGTGKTMLAKAVATECGTTFFNVSSASLTSKYHGESEKLVRLLFEMARFYAPSTIFIDEIDSICSKRGTGSEHEASRRVKSELLIQMDGVSGPSAGEESSKMVMVLAATNFPWDIDEALRRRLEKRIYIPLPEIDGREQLLRINLKEVPLADDIDLKSIAEKMDGYSGADITNVCRDASMMAMRRRIQGLRPEEIRHIPKEELNQPSTPADFLLALQKVSKSVGKEDLVKYMAWMEEFGSV
chain 2: HHHHHHMATKRAWKLQELVAHSSNVNCLALGPMSGRVMVTGGEDKKVNLWAVGKQNCIISLSGHTSPVDSVKFNSSEELVVAGSQSGTMKIYDLEPAKIVRTLTGHRNSIRCMDFHPFGEFVASGSTDTNVKLWDVRRKGCIYTYKGHSDQVNMIKFSPDGKWLVTASEDTTIKLWDLTMGKLFQEFKNHTGGVTGIEFHPNEFLLASGSSDRTVQFWDLETFQLVSSTSPGASAVRSISFHPDGSYLFCSSQDMLHAFGWEPIRCFDTFSVFWGKVADTVIASTQLIGASFNATNVSVYVADLSRMSTTGIAQEPQSQPSKTPSGGAEEVPSKPLTASGRKNFVRERPHTTSSKQRQPDVKSEPERQSPTQDEGVKDDDATDIKDPDSYAKIFSPKTRVDHSPERNAQPFPAPLDVPGAQEPEPFKHPPKPAAAAAVAPVSRAPAPSASDWQPAQANPAPNRVPAATKPVPAQEVAPSRKPDPISTIIPSDRNKPANLDMDAFLPPAHAQQAPRVNAPASRKQSDSERIEGLRKGHDSMCQVLSSRHRNLDVVRAIWTAGDAKTSVESVVNMKDQAILVDILNIMLLKKSLWNLDMCVVVLPRLKELLSSKYENYVHTSCACLKLILKNFTSLFNQNIKCPPSGIDITREERYNKCSKCYSYLIATRGYVEEKQHVSGKLGSSFRELHLLLDQLE
B1: the “ATPase activity (malachite green), stimulation by microtubules” value was “this activity was stimulated ˜10-fold by microtubules”; the “maximal microtubule-stimulated ATPase rate” value is listed as “maximal microtubule-stimulated rate of 3 ATP/katanin/sec”; the “microtubule concentration at peak ATPase stimulation” value is on record as “peak at ˜2 µM tubulin”; the “microtubule severing, fluorescence microscopy assay” value is “Both p60 and p60/p80 severed microtubules in this assay”.

B2: baculovirus-expressed S. purpuratus katanin p60 subunit with N-terminal His(6) tag (protein)
chain: HHHHHHMSVDEICENTKMGREYALLGNYETSLVYYQGVLQQIQKLLTSVHEPQRKHQWQTIRQELSQEYEHVKNITKTLNGFKSEPAAPEPAPNHGRAAPFSHHQHAAKPAAAEPARDPDVWPPPTPVDHRPSPPYQRAARKDPPRRSEPSKPANRAPGNDRGGRGPSDRRGDARSGGGGRGGARGSDKDKNRGGKSDKDKKAPSGEEGDEKKFDPAGYDKDLVENLERDIVQRNPNVHWADIAGLTEAKRLLEEAVVLPLWMPDYFKGIRRPWKGVLMVGPPGTGKTMLAKAVATECGTTFFNVSSASLTSKYHGESEKLVRLLFEMARFYAPSTIFIDEIDSICSKRGTGSEHEASRRVKSELLIQMDGVSGPSAGEESSKMVMVLAATNFPWDIDEALRRRLEKRIYIPLPEIDGREQLLRINLKEVPLADDIDLKSIAEKMDGYSGADITNVCRDASMMAMRRRIQGLRPEEIRHIPKEELNQPSTPADFLLALQKVSKSVGKEDLVKYMAWMEEFGSV
In the case of B2, the “ATPase activity (malachite green), stimulation by microtubules” value is given as “p60 alone displayed a microtubule-stimulated ATPase activity”; the “microtubule concentration at peak ATPase stimulation” value is “peak at ˜2 µM tubulin”; the “microtubule severing, fluorescence microscopy assay” value is “Both p60 and p60/p80 severed microtubules in this assay”.
